Experimental data as given in patent US6043072, “Nucleic acids encoding Taxus geranylgeranyl diphosphate synthase, and methods of use” (Washington State University Research Foundation, dated 2000).

Molecular target: the molecule itself
Experiment: gel permeation chromatography on calibrated Superdex G-75 (about 60,000 against the predicted monomer of 32.1 kDa) with SDS-PAGE; self-association (homodimer)
Experimental: After centrifugation as above, the cell pellet was resuspended in 80 ml of ice cold 50 mM Tris (pH 7.6) containing 10% (v/v) glycerol, 10 mM MgCl_2, 5 mM DTT, and 1 μg/ml leupeptin (extraction/assay buffer). All subsequent operations were conducted at 0–4° C. Cells were disrupted with 150 ml glass beads using a Biospec Bead-Beater operated at 90 V for 5 min, and the resulting debris was removed by centrifugation at 3000 g for 20 min to yield a supernatant that was further clarified by centrifugation at 31,000 g for 20 min. The resulting supernatant was used as the enzyme source.

B1: T. canadensis GGPP synthase Tr^295 truncated protein (enzyme)
chain: FDFNEYMKSKAVAVDAALDKAIPLEYPEKIHESMRYSLLAGGKRVRPALCIAACELVGGSQDLAMPTACAMEMIHTMSLIHDDLPCMDNDDFRRGKPTNHKVFGEDTAVLAGDALLSFAFEHIAVATSKTVPSDRTLRVISELGKTIGSQGLVGGQVVDITSEGDANVDLKTLEWIHIHKTAVLLECSVVSGGILGGATEDEIARIRRYARCVGLLFQVVDDILDVTKSSEELGKTAGKDLLTDKATYPKLMGLEKAKEFAAELATRAKEELSSFDQIKAAPLLGLADYIAFRQN
binding result: binds
